From patent publication US20240317852A1 (Molecular Partners, published 2024) come the findings set out here.

In general, Kd refers to the free concentration of one partner at which half of the binding sites on the other are occupied at equilibrium, for simple one-to-one binding. The low end stands for higher affinity, the high end for lower affinity. The term EC50 denotes the concentration giving half of the maximal effect. Low readings indicate greater potency, high ones weaker potency.

In assay [1] the target is T1, biotinylated human CD33 full-length extracellular domain (residues 18-259) with C-terminal Fc tag and Avi tag (human, UniProt P20138 18-259, biotinylated with BirA-GST (Avi tag)).
T1 construct: Bought from Evitria; also called bio.hCD33; bio.hCD33 full-length target; not shown: C-terminal Fc tag and Avi tag
T1 sequence (P20138 18-259 R69G limits assumed): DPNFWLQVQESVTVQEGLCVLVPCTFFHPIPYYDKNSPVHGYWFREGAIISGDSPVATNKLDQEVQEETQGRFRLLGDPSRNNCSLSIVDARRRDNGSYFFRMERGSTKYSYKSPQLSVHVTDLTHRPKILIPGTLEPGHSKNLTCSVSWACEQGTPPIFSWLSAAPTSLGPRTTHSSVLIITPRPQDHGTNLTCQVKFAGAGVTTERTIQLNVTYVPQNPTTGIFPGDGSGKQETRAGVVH
Briefly: SPR (ProteOn XPR36), biotinylated full-length CD33 ECD on NLC chip, DARPin at 50 nM, single trace. As for the experimental part:
Briefly, SPR measurements were performed using a ProteOn XPR36 instrument (BioRad). The running buffer was PBS pH 7.4 containing 0.005% Tween 20® (PBST). The bio.hCD33 full-length target (SEQ ID NO: 60) was immobilized on NLC chips (BioRad) to a level of 540 RU and the spliced variant (SEQ ID NO: 61) to a level of 560RU. The interaction of the 96 well purified CD33-specific binding proteins in TCE format to the full-length and the spliced variant of CD33 ECD were measured by injecting the binding protein at 50 nM with an association of 120s and dissociation of 1200s using a constant flow of […]. The target was regenerated between the individual measurements using 2M MgCl₂. The signals were double referenced against the running buffer (PBST) treated control lane.
Dissociation constants (KD) were calculated from the estimated on- and off-rates using standard procedures known to the person skilled in the art. […] The values in Table 2a are averages of multiple replicates.

In assay [2] the target is T1, biotinylated human CD33 full-length …. Briefly: SPR (ProteOn), bio.hCD33 full length on NLC chip, DARPin at 100 nM, 1:1 Langmuir fit. As for the experimental part: Moreover, the binding affinities of two additional purified ankyrin repeat proteins on recombinant human CD33 target were measured and analyzed with a similar procedure as described above for DARPin proteins #1, #3, #6, #7-#9 and #14-#16. Briefly, bio.hCD33 was coaled on NLC chip (BioRad) to a level of 1180 RU. DARPin® protein #29 and DARPin® protein #30 were applied as analyte at a single concentration of 100 nM with a 120 s association and 1200 s dissociation phase at a constant flow of 100 ul/min. The target was regenerated with 4M MgCl2. The signals were double referenced against the running buffer (PBST-PBS pH 7.4 containing 0.005% Tween 200) treated control lane of L1 and A6. The 1:1 Langmuir model was used for the fitting.

For assay [3], the target named is T2, human CD33 expressed on Molm-13 tumor cells (human, UniProt P20138 18-364).
T2 construct: whole, on cells; also called CD33 expressed on the surface of cells; CD33-expressing tumor cells (Molm-13 N1)
T2 sequence (P20138 18-364): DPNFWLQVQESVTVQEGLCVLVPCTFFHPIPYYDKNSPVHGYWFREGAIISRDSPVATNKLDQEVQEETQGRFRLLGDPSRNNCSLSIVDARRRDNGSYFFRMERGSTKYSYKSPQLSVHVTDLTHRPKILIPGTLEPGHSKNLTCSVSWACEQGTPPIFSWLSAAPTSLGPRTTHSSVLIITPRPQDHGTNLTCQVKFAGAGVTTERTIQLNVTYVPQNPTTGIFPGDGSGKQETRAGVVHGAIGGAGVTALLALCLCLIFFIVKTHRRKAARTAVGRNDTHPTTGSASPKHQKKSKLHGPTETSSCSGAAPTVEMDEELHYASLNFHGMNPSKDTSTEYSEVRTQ
The experiment in a line: flow cytometry on CD33-expressing Molm-13 N1 cells, anti-DARPin antibody detection. As for the experimental part: Binding of binding proteins of the invention to CD33 expressed on the surface of cells was analyzed by fluorescence activated cell sorting (FACS) flow cytometry. For this purpose. CD33-expressing tumor cells (Molm-13 N1) were seeded at 100,000 cells per well in a 96 well plate. DARPin® protein #2, DARPin protein #29, and DARPin® protein #30, in monospecific format, were titrated down In 1:5 dilution ratio starting at 2000 nM. Tumor cells were resuspended with diluted DARPin proteins and incubated for 60 minutes at 4° C. The assay was performed in PBS Including 2% fetal bovine serum without human serum albumin (HSA). After washing twice with Phosphate Buffer saline (PBS), DARPin® protein specific tumor call binding was detected by adding unlabeled primary […] (anti-rabbit 1-1-1 antibody, CePower) at 2 μg/ml. An incubation step of at least 30 minutes at 4° C. followed. Afterwards, cells were washed with PBS and a secondary goat anti-rabbit antibody labelled with Alexa Fluor 488 antibody (ThermoFisher) at 2 ug/ml was added. The same incubation conditions applied. Finally, the cells were washed twice and resuspended in Cytofix fixation buffer (BD Biosciences) for 15 min at room temperature (RT).
A general note: Flow cytometry measures light scatter and fluorescence of single cells or particles in a stream.

The target in assay [4] is T2, human CD33 expressed on Molm-13 tumor …. Briefly: flow cytometry on MOLM13 cells.
Assay [5] deals with T1, biotinylated human CD33 full-length …. The experiment in a line: HTRF. (In general: TR-FRET usually uses a lanthanide donor and a delayed reading to cut background.)

B1: DARPin® protein #1 in TCE format (formatted with a CD3-specific ankyrin repeat domain) (designed binder)
chain: MRGSHHHHHHGSDLGWKLLLAASRGQDDEVRILLAAGADVNAKDIDEGYTPLHIAAYYGHLEIVEVLLKAGADVNAKDRYGKTPLHLAAISGHEDIAEVLLKAGADVNAQDDKGDTPADLAADYGHEDIAEVLQKAA
notes: not shown: which one,
In assay [1], B1 gave a Kd of 4.8 nM.

B2: DARPin® protein #29 in monospecific (single domain) format (designed binder)
chain: MRGSHHHHHHGSDLGVKLLLAAERGQLDEVRILLKAGADVNAKDIAEGYTPLHIAAYQGHLEIVEVLLKAGADVNAKDRYGKTPLHLAAIGGHLEIVEVLLKAGADVNAQDNKGSTPADLAADYGHQDIAEVLQKAA
notes: the same molecule is used here
The molecule B2 returned a Kd in assay [2] of 0.62 nM. In assay [3], this molecule gave an EC50 of 0.32 nM.

B3: DARPin® protein #30 in monospecific (single domain) format (designed binder)
chain: MRGSHHHHHHGSDLGKKLLLAAERGQLDEVRILLKAGADVNAKDRAEGYTPLHIAAYQGHLEIVEVLLKAGADVNAKDRYGKTPLHLAAISGHLEIVEVLLKAGADVNAQDNKGSTPADLAADYGHQDIAEVLQKAA
notes: as for B2
In turn, B3 showed a Kd in assay [2] of 0.88 nM. The same molecule had an EC50 in assay [3] of 1.9 nM.

B4: DARPin® protein #2 in monospecific (single domain) format (designed binder)
chain: MRGSHHHHHHGSDLGVKLLLAASRGQLDEVRILLKAGADVNAKDIDEGYTPLHIAAYYGHLEIVEVLLKAGADVNAKDRYGKTPLHLAAISGHLEIVEVLLKAGADVNAQDDKGDTPADLAADYGHQDIAEVLQKAA
In assay [3], B4 gave an EC50 of 1.2 nM.

B5: DARPin® protein #8 in TCE format (formatted with a CD3-specific ankyrin repeat domain) (designed binder)
chain: MRGSHHHHHHGSDLGWKLLSAATLGQDDEVRILLAAGADVNAKDEWGKTPLHWAASTGHLEIVEVLLKAGADVNAKDLWGHTPLHEAAAKGHLEIVEVLLKAGADGNAQDNIGDTPADLAAYQGHEDIAEVLQKAA
notes: Crude extract HTRF construct also carried a C-terminal Flag tag; not shown: which one,
With B5, in assay [1], the equilibrium dissociation constant (Kd) is 2.3 nM.

B6: DARPin® protein #10 (engineered variant of DARPin® protein #9) (designed binder)
chain: DLGYKLLWAASAGQDDEVRELLKAGADVNAKDKDGATPLHFAAAKGHLEIVEVLLKAGADVNAKDNRGATPLHYAAASGHLEIVEVLLKAGADVNAQDEWGNTPADLAAIYGHGDIAEVLQKAA
B6: the binding result in assay [4] and in assay [5] was “binds” each time.

B7: DARPin® protein #13 (engineered variant of DARPin® protein #9) (designed binder)
chain: DLGYKLLWAASAGQDDEVRELLKAGADVNAKDKDGATPLHFAAAKGHLEIVEVLLKAGADVNAKDNRGATPLHYAAASGHLEIVEVLLKAGADVNAQDEWGNTPADLAAIYGHEDIAEVLQKAA
For B7, the binding result in assay [4] and in assay [5] was “binds” each time.

B8: DARPin® protein #14 in TCE format (formatted with a CD3-specific ankyrin repeat domain) (designed binder)
chain: MRGSHHHHHHGSDLGWKLLNAAIAGQDDEVRILLAAGADVNAKDTEYGWTPLHIAASDGHLEIVEVLLKAGADVNAKDYAGSTPLHAAAFVGHLEIVEVLLKAGADVNAQDHQGQTPADLAAQQGHVDIAEVLQKAA
notes: as for B5
On to B8, for which binding in assay [1] was characterised by a dissociation constant (Kd) of 0.64 nM.

B9: DARPin® protein #9 in TCE format (formatted with a CD3-specific ankyrin repeat domain) (designed binder)
chain: MRGSHHHHHHGSDLGYKLLWAASAGQDDEVRILLAAGADVNAKDKDGATPLHFAAAKGHLEIVEVLLKAGADVNAKDNRGATPLHYVAAASGHLEIVEVLLKAGADVNAQDEWGNTPADLAAIYGHGDIAEVLQKAA
notes: as for B5
For the molecule B9, in assay [1], the Kd stood at 0.76 nM.

B10: DARPin® protein #11 (engineered variant of DARPin® protein #9) (designed binder)
chain: DLGYKLLWAASAGQDDEVRELLKAGADVNAKDKDGATPLHFAAAKGHLEIVEVLLKAGADVNAKDNRGATPLHYVAAASGHLEIVEVLLKAGADVNAQDEWGNTPADLAAIYGHEDIAEVLQKAA
As to B10, the binding result in assay [4] and in assay [5] was “binds” in each case.

B11: DARPin® protein #12 (engineered variant of DARPin® protein #9) (designed binder)
chain: DLGVKLLWAASAGQDDEVRELLKAGADVNAKDKDGATPLHFAAAKGHLEIVEVLLKAGADVNAKDNRGATPLHYVAAASGHLEIVEVLLKAGADVNAQDEWGNTPADLAAIYGHGDIAEVLQKAA
On to B11, for which the binding result in assay [4] and in assay [5] was “binds” throughout.

B12: DARPin® protein #7 in TCE format (formatted with a CD3-specific ankyrin repeat domain) (designed binder)
chain: MRGSHHHHHHGSDLGLKLLRAAYDGQDDEVRILLAAGADVNAKDWQGFTPLHYAAVLGHLEIVEVLLKAGADVNAKDQEGATPLHLAALHGHLEIVEVLLKAGADVNAQDESGWTPADLAAKWGHEDIAEVLQKAA
notes: as for B5
The molecule B12 came in with a Kd in assay [1] of 0.47 nM.

B13: DARPin® protein #15 in TCE format (formatted with a CD3-specific ankyrin repeat domain) (designed binder)
chain: MRGSHHHHHHGSDLGKKLLQAARAGQLDEVRELLKAGADVNAKDLIGWTPLHLAAHYGHLEIVEVLLKAGADVNAKDAQGWTPLHIAAWEGHLEIVEVLLKAGADVNAKDWTGETPLHLAAFEGHLEIVEVLLKAGADVNAQDKSGKTPADLAARAGHQDIAEVLQKAA
notes: as for B5
Molecule B13 showed a Kd in assay [1] of 17 nM.

B14: DARPin® protein #5 in TCE format (formatted with a CD3-specific ankyrin repeat domain) (designed binder)
chain: MRGSHHHHHHGSDLSKKLLQAARAGQLDEVRELLKAGADVNAKDQIGQTPLHLAAQSGHLEIVEVLLKAGADVNAKDTEGWTPLHVAAWEGHLEIVEVLLKAGADVNAKDWTGETPLHLAAYQGHLEIVEVLLKAGADVNAQDKSGKTPADLAARAGHQDIAEVLQKAA
notes: as for B5
In assay [1], B14 came in with a Kd of 12 nM.

B15: DARPin® protein #3 in TCE format (formatted with a CD3-specific ankyrin repeat domain) (designed binder)
chain: MRGSHHHHHHGSDLGVKLLRAAFHGQDDEVRILLAAGADVNAKDTDGETPLHYAAQFGHLEIVEVLLKAGADVNAKDAYGATPLHWAAWHGHLEIVEVLLKAGADVNAQDVSGATPADLAAKVGHEDIAEVLQKAA
notes: as for B5
As to B15, in assay [1], binding was characterised by a dissociation constant (Kd) of 7.4 nM.
